Laboratory results: paper PMC7476095

Assays:
KU80 [1] = biological target: KU80 (UniProt P13010); assay: anti-FLAG co-IP, KU80 blot; conditions: reference: wild type, IR 6 Gy; sites S214
KU80 [2] = biological target: KU80 (UniProt P13010); assay: anti-KU80 co-IP, MAD1 blot; conditions: reference: wild type, IR 6 Gy; sites S214

MAD1 (mitotic arrest-deficient protein 1) (from UniProt Q9Y6D9) S214A, IR 6 Gy
binding against the reference (KU80 [1]): weaker | binding against the reference (KU80 [2]): weaker
